Patent US20240101668A1 (WUGEN, published 2024)
Numbering of substitutions follows the chain as printed.

T1: huCLL1-Q244-Avi-Tev-His (human, UniProt Q5QGZ9 65-265)
T1 construct: extracellular domain; also called CLL-1 K244Q
T1 sequence (looked up): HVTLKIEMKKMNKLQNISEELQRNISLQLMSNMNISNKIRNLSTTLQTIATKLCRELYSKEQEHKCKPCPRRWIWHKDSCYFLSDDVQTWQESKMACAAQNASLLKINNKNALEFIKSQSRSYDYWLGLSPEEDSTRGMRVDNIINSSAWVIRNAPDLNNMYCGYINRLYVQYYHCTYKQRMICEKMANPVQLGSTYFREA

T2: huCLL1-K244-Avi-Tev-His (human, UniProt Q5QGZ9 65-265)
T2 construct: extracellular domain
T2 sequence (looked up): T1 sequence (looked up) with Q180K

B1: Polypeptide No. 165 (scFv, V domains shown)
VH: QVQLVQSGAEVKKPGASVKVSCKASGYTFTSYDINWVRQAPGQGLEWMGWMNPNSGNTGYAQKFQGRVTMTRDTSTSTVYMELSSLRSEDTAVYYCARLSSGYYPDYWGQGTLVTVSS
VL: DIQMTQSPSSLSASVGDRVTITCRASQFIANWLAWYQQKPGKAPKLLIYDASSLESGVPSRFSGSGSGTDFTLTISSLQPEDFATYYCQQSYSTPLTFGGGTKVEIKR
notes: scFv
B2: Polypeptide No. 179 (scFv, V domains shown)
VH: QVQLVQSGAEVKKPGASVKVSCKASGGTFSSYAISWVRQAPGQGLEWMGTINPSGGSTNYAQKFQGRVTMTRDTSTSTVYMELSSLRSEDTAVYYCAIGGYDSPYMDVWGKGTTVTVSS
VL: B1 VL with R24Q, F28D, A30S, W32Y, A34N, S53N, S56T, S91G, T94P, L96W
notes: scFv
B3: Polypeptide No. 166 (scFv, V domains shown)
VH: QVQLVQSGAEVKKPGASVKVSCKASGYTFESYDMNWVRQAPGQGLEWMGWIDPHSGDTNFAQKFQGRVTMTRDTSTSTVYMELSSLRSEDTAVYYCARADYGGNADYWGQGTLVTVSS
VL: B1 VL with F28G, A30S, S53N, S56T, L96Y, G100Q
notes: scFv
B4: Polypeptide No. 167 (scFv, V domains shown)
VH: QVQLVQSGAEVKKPGASVKVSCKASGYTFTSYYMHWVRQAPGQGLEWMGWINPNSGGTNYAQKFQGRVTMTRDTSTSTVYMELSSLRSEDTAVYYCARGTTGDDFDYWGQGTLVTVSS
VL: B1 VL with F28D, A30S, N31T, D50A, E55Q, T94I, L96P, G100P, E105D
notes: scFv
B5: Polypeptide No. 181 (scFv, V domains shown)
VH: B4 VH with S31G, W50V, N54S, S55G, G57S, N59S, T100R, G102D, D104A, Y107I
VL: B1 VL with F28T, A30S, N31S, D50A, S53T, E55Q, T94I, V104L
notes: scFv
B6: Polypeptide No. 183 (scFv, V domains shown)
VH: QVQLVQSGAEVKKPGSSVKVSCKASGGTFSSYAISWVRQAPGQGLEWMGGIIPKFGPPNYAPKFQGRVTITADESTSTAYMELSSLRSEDTAVYYCARNSYGDDFDYWGQGTLVTVSS
VL: B1 VL with F28S, A30S, N31S, D50A, E55Q, S56R, G100Q
notes: scFv
B7: Polypeptide No. 184 (scFv, V domains shown)
VH: QVQLVQSGAEVKKPGASVKVSCKASGGTFGNYGINWVRQAPGQGLEWMGVINPSSGGTNLAQKFQGRVTMTRDTSTSTVYMELSSLRSEDTAVYYCARSLGWPSPYMDVWGQGTMVTVSS
VL: B1 VL with F28S, A30S, N31R, W32Y, A34N, S53N, S56T, L96W, G100Q, V104L
notes: scFv
B8: Polypeptide No. 171 (scFv, V domains shown)
VH: QVQLVQSGAEVKKPGASVKVSCKASGYTFTDYYIHWVRQAPGQGLEWMGMVDPNTGNINYAQTFQGRVTMTRDTSTSTVYMELSSLRSEDTAVYYCTSGSTNDAFDIWGQGTMVTVSS
VL: B1 VL with F28S, A30G, N31P, D50E, S53N, E55A
notes: scFv
B9: Polypeptide No. 180 (scFv, V domains shown)
VH: QVQLVQSGAEVKKPGASVKVSCKASGYTFTSLDINWVRQAPGQGLEWMGSMNPRSGSTAYAQSFQGRVTMTRDTSTSTVYMELSSLRSEDTAVYYCAKSDYGDYLDYWGQGTLVTVSS
VL: B1 VL with F28S, A30S, N31P, S53N, E55Q, G100Q, V104L
notes: scFv
B10: Polypeptide No. 168 (scFv, V domains shown)
VH: B4 VH with S31N, Y33G, M34I, H35S, G99V, T100R, T101S, G102D, D104F
VL: B1 VL with F28S, I29V, A30N, N31H, D50A, S53T, E55Q, T94L
notes: scFv
B11: Polypeptide No. 173 (scFv, V domains shown)
VH: QVQLVQSGAEVKKPGASVKVSCKASGYTFNGYNMHWVRQAPGQGLEWMGWINPNSGDTNYAQKFQGRVTMTRDTSTSTVYMELSSLRSEDTAVYYCASLDYGDYAVYWGQGTLVTVSS
VL: B1 VL with F28S, A30S, N31T, E55R, L96I, G100Q
notes: scFv
B12: Polypeptide No. 186 (scFv, V domains shown)
VH: QVQLVQSGAEVKKPGASVKVSCKASGYTFTKYYMHWVRQAPGQGLEWMGWINPNSGNTGYAQKFQGRVTMTRDTSTSTVYMELSSLRSEDTAVYYCARDIAVAGSTYYYYGMDVWGQGTTVTVSS
VL: B1 VL with R24Q, F28D, A30S, W32Y, A34N, S52T, S53N, S56T, L96P
notes: scFv
B13: Polypeptide No. 169 (scFv, V domains shown)
VH: QVQLVQSGAEVKKPGASVKVSCKASGYTFTNDYIHWVRQAPGQGLEWMGWMSPNSGKTGFAQKFQGRVTMTRDTSTSTVYMELSSLRSEDTAVYYCAKDNSSGWYFDLWGRGTLVTVSS
VL: DIQMTQSPSSLSASVGDRVTITCRVSQGISSYLAWYQQKPGKAPKLLIYDASNLETGVPSRFSGSGSGTDFTLTISSLQPEDFATYYCQQYDTLPITFGQGTRLEIKR
notes: scFv
B14: Polypeptide No. 178 (scFv, V domains shown)
VH: EVQLLESGGGLVQPGGSLRLSCAASGFTFSSSDMSWVRQAPGKGLEWVSSITGSGDGTYYADSVKGRFTISRDNSKNTLYLQMNSLRAEDTAVYYCIRDWEGIYQWGQGTLVTVSS
VL: B13 VL with A34N, Y91G, D92Y, T93S, L94T, I96W, R103K
notes: scFv
B15: Polypeptide No. 172 (scFv, V domains shown)
VH: B4 VH with T30S, S31D, M34V, I51M, G57N, N59G, T100L, D104Q
VL: not shown
notes: scFv
B16: Polypeptide No. 182 (scFv, V domains shown)
VH: QVQLVQSGAEVKKPGASVKVSCKASGYTFTDYYMHWVRQAPGQGLEWLGIINTGAGTTNYAPKFQGRVTMTRDTSTSTVYMELSSLRSEDTAVYYCARGLTSDHFDYWGQGTLVTVSS
VL: DIQMTQSPSSLSASVGDRVTITCRASQNIGPWLAWYQQKPGKAPKLLIYEAFTLQSGVPSRFSGSGSGTDFTLTISSLQPEDFATYYCQQSDNIPITFGQGTKVEIKR
notes: scFv
B17: Polypeptide No. 175 (scFv, V domains shown)
VH: QVQLVQSGAEVKKPGASVKVSCKASGYTFTSYDIHWVRQAPGQGLEWMGWINPNSGNTGYAQKFQGRVTMTRDTSTSTVYMELSSLRSEDTAVYYCAGGPDVDAAMVLDYWGQGTLVTVSS
VL: DIQMTQSPSSLSASVGDRVTITCQASQDISNYLNWYQQKPGKAPKLLIYDASNLETGVPSRFSGSGSGTDFTLTISSLQPEDFATYYCQQADGFPPTFGGGTKVEIKR
notes: scFv
B18: Polypeptide No. 185 (scFv, V domains shown)
VH: EVQLLESGGGLVQPGGSLRLSCAASGFTFSNSDMYWVRQAPGKGLEWVSAISGSDGTTYYADSVKGRFTISRDNSKNTLYLQMNSLRAEDTAVYYCARDDYGDQGFDLWGRGTLVTVSS
VL: DIQMTQSPSSLSASVGDRVTITCRASQDIRNDLGWYQQKPGKAPKLLIYDASNLQTGVPSRFSGSGSGTDFTLTISSLQPEDFATYYCQQSYNMPYTFGQGTKLEIKR
notes: scFv
B19: Polypeptide No. 174 (scFv, V domains shown)
VH: EVQLLESGGGLVQPGGSLRLSCAASGFIFRDHWMHWVRQAPGKGLEWVSSIDFSTGYIYYADSVKGRFTISRDNSKNTLYLQMNSLRAEDTAVYYCARDPWGDGDFDYWGRGTLVTVSS
VL: DIQMTQSPSSLSASVGDRVTITCRASQSISSWLAWYQQKPGKAPKLLIYAASSLQSGVPSRFSGSGSGTDFTLTISSLQPEDFATYYCQQTYTTPYTFGQGTRLEIKR
notes: scFv
B20: Polypeptide No. 176 (scFv, V domains shown)
VH: QVQLVQSGAEVKKPGASVKVSCKASGGSFTSYYIHWVRQAPGQGLEWVGWMNPNSGNTGYAQKFQGRVTMTRDTSTSTVYMELSSLRSEDTAVYYCARGATDDAFDIWGQGTMVTVSS
VL: DIQMTQSPSSLSASVGDRVTITCRASQNIDTWLAWYQQKPGKAPKLLIYDGSNLEAGVPSRFSGSGSGTDFTLTISSLQPEDFATYYCQQSYNTPITFGQGTRLEIKR
notes: scFv
B21: Polypeptide No. 164 (scFv, V domains shown)
VH: QVQLVQSGAEVKKPGASVKVSCKASGYTFTAHYIHWVRQAPGQGLEWMGIINPNGGRTTYAQKFQGRVTMTRDTSTSTVYMELSSLRSEDTAVYYCARDSDFWSGYYSDYYYGMDVWGQGTTVTVSS
VL: DIQMTQSPSSLSASVGDRVTITCQASQDISNFLNWYQQKPGKAPKLLIYATSTLQSGVPSRFSGSGSGTDFTLTISSLQPEDFATYYCQQSYTTEWTFGQGTKVEIKR
notes: scFv
B22: Polypeptide No. 170 (scFv, V domains shown)
VH: QVQLVQSGAEVKKPGASVKVSCKASGGSFSNHGVSWVRQAPGQGLEWMGWMNPNSGDTGYAQKFQGRVTMTRDTSTSTVYMELSSLRSEDTAVYYCARPRKDDAFAIWGQGTLVTVSS
VL: B1 VL with F28S, A30S, N31S, D50E, S53T, E55Q, G100Q
notes: scFv

Assays:
[1] = molecular target: T1, huCLL1-Q244-Avi-Tev-His; experiment: BLI
[2] = molecular target: T2, huCLL1-K244-Avi-Tev-His; experiment: BLI

binding result [1] | binding result [2] | Binder
binds | binds | B1
binds | binds | B2
binds | binds | B3
binds | binds | B4
binds | binds | B5
binds | binds | B6
binds | binds | B7
binds | binds | B8
binds | binds | B9
binds | binds | B10
binds | binds | B11
binds | binds | B12
binds | binds | B13
binds | binds | B14
binds | binds | B15
binds | binds | B16
binds | binds | B17
binds | binds | B18
binds | binds | B19
binds | binds | B20
binds | binds | B21
binds | binds | B22
